Results on 2 molecules are retold here after paper PMC11417388, “Trypanosome mRNA recapping is triggered by hypermethylation originating from cap 4” (Nucleic Acids Research, 2024).

One data set deals with T1, vvD1/D12 (Vaccinia virus WR, UniProt P04298).
T1 construct: gene OPG113

Substrate in the data set “purified protein”: Nc1ncnc2c1ncn2[C@@H]1O[C@H](COP(=O)(O)OP(=O)(O)OP(=O)(O)O)[C@@H](O)[C@H]1O
The data set is described as follows: purified protein. It counts as biochemical, Trypanosoma brucei. To be noted: co-substrate 100 nM fully methylated cap 4 pRNA (p m6,2AmAmCm m3Um), 0.5 mM MgCl2, pH 8.5, 27 °C, labelled compound.

On to `C[S+](CC[C@H](N)C(=O)O)C[C@H]1O[C@@H](n2cnc3c(N)ncnc32)[C@H](O)[C@@H]1O` (stereo partly drawn) [AdoMet], for which the “cap methyltransferase assay on ppRNA substrates” value on vvD1/D12 was “cap methyltransferase activity was compared on ppAmAmCmUm and unmodified ppRNAs”.

B1: TbCe1 (Trypanosoma brucei brucei TREU927) (protein)
chain: MSATDVASELRSGAPEYVPTFLRCKQSENVTAFESPVVFLMFGCRGAGKSTQSTLLSKTYNLLYLSSGDIYKSGKQPFVELRKILNEHFGDGKERVYNGVVLDRFIANSEFEAFYVQTALRSVGLPVPFVFMLAIDQGLAAKRAEERGDNKGGNQRWRAVEQKAQAITANTVYAPIQCLKTIRVESDMTIDDVFNEIKTTIANQLPPDLFNLQLPREARREVEGTVLVEDYELYMELANDVHTVVGNLRGRRDSAPLSNVGAHLDKEYFSFANKRLRSQLTTMHVTLKADGLRFLVMKHKTRGYIGFPSAFTHCYELNDLFEGVEMAPKPYTELKKWMNDKSCELPADFLLDTEVVVHEKKPTLYIIDFIYFWGLDGRRMQFEQRLKVLREYFGDMKPQGQVIAMKDYVPINKIRTLVEEMKRRTELPVDGLIFQHNGSYRFGSDKFLIKWKPVHLCTVDFRLANGRVENGVWTFDLFVTDDFIEENGFREVAYPGATALIPASVVEENGLQNGMIIEMALSEKESVKKTSPNAPSEKTRWTFRNARNDKPSPNKYSIVTRICELMHVDLDELVSLCEKVPFYRNV
notes: expressed as His-Smt3 fusion in E. coli; tag removed by Ulp1; glycerol gradient purified
Take B1: in the data set “purified protein”, the Km (as a rule, the substrate concentration at which the rate is half of its maximum) stood at 0.21 µM and the kcat (in general, the maximal rate divided by the concentration of active sites) worked out at 0.0383 s⁻¹.
